Experimental data from the nanobody polyreactivity screen of Harvey et al. (2022).

Assay: yeast display, Sf9 membrane polyspecificity reagent, FACS + sequencing; frameworks hold sequencing errors
In short: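 Galactose-induced (36–48 hours) yeast carrying a synthetic nanobody display library were exposed to 10% biotinylated, detergent-solubilized Sf9 membrane reagent at 4 °C for 1 hour. FACS followed streptavidin microbead enrichment, using low and high (top ~1%) gates for expression (anti-HA) and reagent binding (streptavidin). Colony PCR, MiSeq 2 × 250 sequencing and CDR-length filtering followed. Labels for polyreactivity reflect the gate of origin.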

Row | Sequence | polyreactivity (PSR sort gate)
1 | QVQLVESAGGLVQAGGSLRLSCAASGRIFSYKAMGWYRQAPGKQRELVAAISYSGGRTYYADSVKGRFTISRDNAKNTVYLQMYSLKPEDTAVYYCAAEAHLAGFYRYYGGYGYDYWGQGTQVTVSS | high polyreactivity
2 | QVQLVESGGGLVQAGGSLRLSCAASGFTFFAYTMGWYRQAPWKERELVAAISWSGAGTYYADSVKGRFTISRDNAKNTVYLQMNSLKPEDTAVYYCNGVPYSGFDYWGQGTQVTVSS | high polyreactivity
3 | QGQLVESGGRLVQAGGSLRLSCAASGFTFDSYAMAWYRQAPGKERELVASISSSGSTNYADSVKGRFTISRDNAKNTVYLQMNSLKPEDTAVYYCAAVSRYPFIYEYWGQGTQVTVSS | low polyreactivity
4 | QVQLVESGGGLVQAGGSLRLSCAASGFIFQYYAMGWYRQAPGKERELVAVIRSGGSTYYADSVKGRFTISRDNAKNTVYLQMNSLKPEDTAVYYCNARRTYLDRYNYWGQGTQVTVSS | high polyreactivity
5 | QFQLVESGGGLFQAGGSLRLSCAASGSTFKRYAMGSYRQAPGKERELVAAISASGGSTSYADSVKGRFTISRDKAKNTVYLQMISLKPEDTAVYYCARDRFRSRFDYWGQGTQVTVSS | high polyreactivity
6 | QVQLVESGGGLVQAGGSLRLSCAASGFIFSRNAMGWYRHAPGKERELVAAISLRGGSTYYADSVKGRFTISRDNAKNTVYLQMNSLKPEDTAVYYCAAPLFSGYDYWGQGTQVTVSS | low polyreactivity
7 | QVQLVESGGGLVQAGGSLRLSCAASGYIFVWYAMGWSRQAPGKERELVATISGGGGTYYADSVKGRFTISRDNAKNNVYFQMNSLNPEDTAVYYCNKGVGWTEASPYSPEYDYWGQGTQVSVSS | low polyreactivity
8 | QVQLVESGGGLVQAGGSLRLSCAASGFTFKYYAMGWYRQAPGKERELVARISWSGGSTYYADSVKGRFTISRDNAKNTFYLQMNSLKPEDTAVYYCNTDVGYGFDYWGQGTQVTVSS | high polyreactivity
9 | QVQLVESGGGLVQAGGSLRLSCAASGSTFRYNTMGWYRQAPGTERELVATISWRGGRTYYADSVKGRFTISRDNAKNTVYLQMNSLKPEDTAVYYCASIATVPRDYGGNYWGQGTQVTVSS | low polyreactivity
10 | QVQLVESGGGLVQAGGSLRLSCAASGSIIIGNAMGWYRPAPGKERELVAVINGSDGTTYYADSVKGRFTISRDTAKNTVYLQMNSLKPEDTAVYYCNADFIDPSVYDYNYWGQGTQVTVSS | low polyreactivity
11 | QVQLVESGRGLVQAGGSLRLSCAASGSTFNSYAMGWYRQAPGKERELVAAIRWSGSSTYYADSVKGRFTISRDNAKNTVYLQMNSLKAEDTAVYYCSKGYSYGRPWDIYYYWGQGTQVTVSS | low polyreactivity
12 | QVQLVESGGGLVQAGGILRLSCAASGSTFVTYTMGWYRQAPGKERELVATITTSGGSTYYADSVKGRFTISRDNAKNTVYLQMNSLKPEDTAVYYCAADWDPGYYVQYGYDYWGQGTQVTVSS | low polyreactivity
13 | QVQLVESGGGLVQAGGSLRLSCAASGCIVSYYTMGWYRQAPGKERELVAAIRSSGGSTYADSVKGRFTISRDNAKNTVYLQMNCLKPEDTAVYYCAAVQTWRWVYARDYWGEGTQVTVSS | high polyreactivity
14 | QVLLVESGGGLVQEGGSLRLSCSASGFTFDSNAMGWYRQAPGKERELVAAISTGGSTYYADSVKGRFTISRDNAKNTVYLQMNSLKPEDNAVYYCAREPPYPDTWYGYWGQGSQVTVSS | low polyreactivity
15 | QVQLVESGGGLVQAGGSLRLSCAASGSTFGFYTMGWYRQAPGKERELVAAISRGGGRTYYADSVKGRFTISRDNAKNTVYLQMNSLKPEDTAVYYCAARSTQGRFEYWGQGTQVTVSS | high polyreactivity
16 | QVQLVESGGGLVQAGGSLRLSCAASGNIFPAYVMGWYRQAPGKERELVAAITDSDGSTFYADSVKGRFTISRDNAKNTVYLQMNSLKPEDTAVYYCAAYSYRQGWGFGYWGQGTQVTVSS | low polyreactivity
17 | QVQLVESGGGLVQAGGSLRLSCAASGRIFDYYAMGWYRQAPGKERELVATINFSDGSTYYADSVKGRFTISRDNAKNTVYLQMNSLKPEDTAGYYCAAAGWEPYDSLDMNYWGQGTQVTVSS | low polyreactivity
18 | QVQLVESGGGLVQAGGSLRLSCAASGITFFGKYAMGWYRQAPGKERELVAAISWSGGRTYYADSVKGRFTISRDNAKNTVYLQMNSLKPEDTAVYYCAVYPRDAERYGYWGQGTQVTVSS | high polyreactivity
19 | QVQLVESGGGLVQAGGSLRLSCAASGRIFTGNAMGWYRQAPGKERELVAAISASGGRTYYAYSVKGRFTISRDHAKNTVYLQMNSLKPEDTAVYYCAKVGRTAYTSTYTGVSAYDYWGQGTQVTVSS | high polyreactivity
20 | QVQLVESGGGLVQAGGSLRLSCAASGSTLYKYAMGWYRQAPGKEREFVAAISWSGSSTYYADSVKGRFTISRDNAKNTVYLQMNSLKPEDTAVYYCAALYTHYYWIEYDYWGQGTQVTVSS | low polyreactivity
21 | QVQLVESGGGLVQAGGSLRLSCAASGFIFIRYAMGWYRQAPGKERELVAAISASGVRTYYADSVKGRFTISRDNAKNTVYLQMNSLKPEDTAVYYCAVCSAWVYGIGRYYWGQGTQVTVSS | high polyreactivity
22 | QVQLVESGGGLVQAGGSLRLSCAASGSIFGVYTMGWYRQAPWKERELVAAISRNGGSTYYEDSVKGRFTISRDNAKNNVYLQMNSLKPEDTAVYYCATSTSRRYGSRHNYWGQGTQVTVSS | high polyreactivity

Row | Sequence | polyreactivity (PSR sort gate)
23 | QVQLVESGGGLVQAGGSLRLSCAASGYNFKRYTMGWYRQAPGKERELVAAISGGDSTNYADSVKGRFTISRDNAKNTVYLHMNSLKPEDTAVYYCAAGGLTLWHGYILGYWGQGTQVTVSS | low polyreactivity
24 | QVQLVESGGGLVQAGGRLRLSCAATGRTFSYNAMGWYRQAPGKERELVAAITTNSGSRTYYADSVKGRFTISRDNAKNTVYLQMNSLKPEDTAVYYCAADGPVVSGYYWGQGTQVTVSS | high polyreactivity
25 | QVQLVESGGGLVQAGGSLRLSCAASGRTFVYNAMGWYRQAPGKERELVAAIDGGGDRTYYADSVKGRFTISRDNAKNTVYLQMNSLKPEDTAVYYCARDPGDTYYYSYPEGDYWGLGTQVTVSS | low polyreactivity
26 | QVQLVESGGGLVQAGGSLRLSCAASGITFYGYAMGWYRQAPGKERELVAVITPSGSSTYYADSVKGRFTISRDNAKNTVYLQMNSLIPEDTAVYYCNARPGRRSLRSRTYDYWGQGTQVTVSS | high polyreactivity
27 | QVQLVESGGGLVQAGGSLRLSCAASGSTFRGYAMGWYRQAPGKERELVAASTWSGVTTYYADSVKGRFTISRDNAKNNVYLQMHSLKPEDTAVYYCATGTLYSDGAIYGYWGQGTQVTVSS | low polyreactivity
28 | QVQLVESGGGLVQAGGSLRLSCAASRRTLGKYVMGRYRQQPGKERELVPAIRSGTNTYYADSVKGRFTISRDNAKNTVYLQMNSLIPEDTAVYYCGAARYTKFDYWGQGTQLTVSS | high polyreactivity
29 | QVQLVESGGGLVQAGGCLRLSCAASGSIFFGYAMGWYRQAPGKERELVAAINGSVITSYADSVKGRFTISRDNAKNTVYLQMNSLKPEDTAYYCNTGSTWGAVIANYDHWGQGTQVTVSS | low polyreactivity
30 | QVQLVESGGGLVQAGGSLRLSCAASGRTIGVYALGWSRQAPGKERELVAALTTSGDSTYYADSVKGRFTISRDNAKNTDYLQMNSLKPEDTAVYYCAARSYRKPRHVSVTYYYWGQGTQVTVSS | low polyreactivity
31 | QVQLVESGGGLVQAGGSLRLSCAASGSIYSSYAMGWYRQAPGKERELVAAISSSGDSTYADSVKGRFTISRDNAKNTVYLQMNSLKPEDTAVYYCAVGGAGSDDYWGQGTQVTVSS | low polyreactivity
32 | QVQLVESGGGLVQAGGSLRLSCAASGSTFWPYAMGRYRPAPGKERELGATIRGGGTSTYYADSVKGRVTISRDNAKNTVYLQMNSLKPEDTAGYYCAARGFYTGSYPGYYYWGQGTQVTVSS | high polyreactivity
33 | QVQLVESGGGLVQAGGSLRLSCAASGNTFYGYAMGWYRPAPGKERELVASITLSGDSTYYADSVKGRFTISRDNAKNTVYLQMNSLKPEDTAVYYCAGVYTYPLGYYHYTYDYWGQGTQVTVSS | low polyreactivity
34 | QVQLVESGGGLVQAGGSLRLSCAASGRTFGGNAMGWYRQAPGKERELVAAITWRGGSTYYADSVKGRFTISRDNAKNTVYLQMNSLKPEDTAVYYCNAVRTGKYVKYYRSIFDYWGQGTQVTVSS | high polyreactivity
35 | QVQLVESGGGLVQAGGSLRLSCAASGRIFPVNAMGWYRQATGKERELVARISWRGGTYYADSVKGRFTISRDNAKNTVYLQMNSLKPEDTAVYYCAATLPSTSYWYQYGYWGQGTQVTVSS | high polyreactivity
36 | QGQIVESGGGLVQAGGSLRLSCAASGFTFRRYAMGWYRQAPGKEREVVAGITSSGGSTYYADSVKGRFTSSRDKAKNPVYLQMNSLKPEDTAVYYCAAEWVYTSFDYWGQGTQVSVSS | high polyreactivity
37 | QVQLVESGGGLVQAGGSLRLSCAASGRIFGSYAMGWYRQAPGKERELVAAITRGGSTNYADSVKGRFTISRDNAKNTVYFQMNSLKPEDTAVYYCARWVGLHYPYYYWGQGTQVTVSS | high polyreactivity
38 | QVQLVESGGGLVQAGGSLRLSCAASGRIFYLNGMGWYRQAPGKERELLAAISSSDDSTYYADSVKGRFTISRDNAKNTVYLQMISLKPEDTAVYYCAAGYHHVQNYGDAYYWSELYSWGQGTQVTVSS | low polyreactivity
39 | QVQLVESGGGLVQAGGSLRISCAASGLTFTDYAIGWYRQAPGKERELVAGIWDGGSTYYADSVKGRFTISRDNAKNTVYLQMNSLKAEDTAVYSCAVRTSRLLREFGYSYWGQGTQVTVSS | high polyreactivity
40 | QVQLVESGGGLVQAGGSLRLSCAASGFTFSLYAMGWYRQAPGKERELVAAITWSGTRTYYADSVKGRFTISRDNAKNTVYLQMNSLKPEDTAVYYCATQGYGYRGWRNLYDYDYWGQGTQVTVSS | high polyreactivity
41 | QVQLVESGGGLVQAGGSLRLSCAASGSIFVHNAMGWYRQAPGKERELVAAITWSGGSTYYADSVKGRFTISRDNAKNTVYLQMNSLKPEDTAVYYCAAEDVAAQWAYESPTSYWYYYIYEYWGQGTQVTVSS | low polyreactivity
42 | QDQIVESWGGLVQSGGSLRLTCAASGRTFSTYAMGWYRQAPGKERELVAAISWRGARTYYADSVKGRFTISRDNAKNTVYLQMNSLKPEDTAVYYCAAAPYRYRRYEYWGQGTQVTVSS | high polyreactivity
43 | QVQLVESGGGLVQAGGSLRLSCAASGSIFYLYDKGWYRQAPGKERELVADITWSGGSTYYADSVKGRFTISRDNAKNTVYLQMYSLKPEDTAVYYCAAAYGPFYYELYDYWGLGTQVTVSS | low polyreactivity
